From the DeepSol protein solubility set

Assay: soluble on expression in E. coli; label from the status in PepcDB or PDB records
With “MDFYYLPGSAPCRAVQMTAAAVGVELNLKLTNLMAGEHMKPEFLKINPQHCIPTLVDNGFALWESRAICTYLAEKYGKDDKLYPKDPQKRAVVNQRLYFDMGTLYQRFADYYYPQIFAKQPANAENEKKMKDAVDFLNTFLDGHKYVAGDSLTIADLTVLATVSTYDVAGFELAKYPHVAAWYERTRKEAPGAAINEAGIEEFRKYFEK” the “soluble on expression in E. coli” value was “soluble”. In the case of “MDHYLVPYNQRANHSKPIPPFLLDLDSQSVPDALKKQTNDYYILYNPALPREIDVELHKSLDHTSVVCCVKFSNDGEYLATGCNKTTQVYRVSDGSLVARLSDDSAANKDPENLNTSSSPSSDLYIRSVCFSPDGKFLATGAEDRLIRIWDIENRKIVMILQGHEQDIYSLDYFPSGDKLVSGSGDRTVRIWDLRTGQCSLTLSIEDGVTTVAVSPGDGKYIAAGSLDRAVRVWDSETGFLVERLDSENESGTGHKDSVYSVVFTRDGQSVVSGSLDRSVKLWNLQNANNKSDSKTPNSGTCEVTYIGHKDFVLSVATTQNDEYILSGSKDRGVLFWDKKSGNPLLMLQGHRNSVISVAVANGSSLGPEYNVFATGSGDCKARIWKYKKIAPN”, the “soluble on expression in E. coli” value is reported as “soluble”. In the case of “MDIARPSCYETVRNDDDKKSSDADIYNTSVKLEDPSAPSHDEQWTYNFFITPLNLNISPTDFKIPNDKSVKYTVKCEAKIKQDLIVQVHSLFFEIVGARCKRGVTSQEFHILSENETMTFEVGMKDLNNVSYENYQAANLLSPAGFITFTHFKSLRKDDASWGVKDPKKLMKVVTKGDGGRYNLEKLLVETETDSIKKISEDFAMILQQGMDDKRTKEQEMKMGNMEMFATEEYVEKWKKDKKAIEIAQKNQREWNDKKLEKPGMQKKKEKKCNIM”, the “soluble on expression in E. coli” value is reported as “not soluble”. In the case of “MDIDYTVGEVELSYKPKFKNIYKVVSSEDAYKYLLPTYKEGTICYKEYFKVLFLNQASQVLGYTLISEGGITDTTVDVRVILQAALLTNSVAIILAHNHPSGSMKPSRQDMEITKQVKEAARLMRITVTDHLILTDAGYYSFADEGEL”, the “soluble on expression in E. coli” value is reported as “not soluble”. In the case of “MDIFPGRLYLKKEVETVEGLQEILAISANRCFRCGNTNPFLFGKMTCASCDREDCLYCRNCIVMGRVNSCQKLYYQKADILPERIESCLGWEGTLSPGQKKAASAVVSSIKQKVDMLLWAVAGSGKTEMMFEGMDLALKQGFRICIASPRVDVCLELYPRLQAVFKEIDIVCLYGDSKDKYQGEQFVVATTHQLIRFYDTFQVIFIDEVDAFPYAKDPFLEYAVRKARTKVGSTIIITATPEKKWQQECATGKRNFVKIPARYHRKQLPVPRTCWIGPWKKNLAQGKITLKLINWIKKAELKNQPVLIFFPEIEAMNQFAEALVNYDFTRPVTVHSADQLRKEKVEWLREGKIKLLLTTTILERGVTFKDVQVAVFGSEGRIFTEAALVQIAGRAGRKLTHPTGDVCFFHYGKTTEMNRAITHIKKMNQLGFKEGLLDD”, the “soluble on expression in E. coli” value is reported as “not soluble”. With “MDITITLDRSEQADYIYQQIYQKLKKEILSRNLLPHSKVPSKRELAENLKVSVNSVNSAYQQLLAEGYLYAIERKGFFVEELDMFSAEEHPPFALPDDLKEIHIDQSDWISFSHMSSDTDHFPIKSWFRCEQKAASRSYRTLGDMSHPQGIYEVRAAITRLISLTRGVKCRPEQMIIGAGTQVLMQLLTELLPKEAVYAMEEPGYRRMYQLLKNAGKQVKTIMLDEKGMSIAEITRQQPDVLVTTPSHQFPSGTIMPVSRRIQLLNWAAEEPRRYIIEDDYDSEFTYDVDSIPALQSLDRFQNVIYMGTFSKSLLPGLRISYMVLPPELLRAYKQRGYDLQTCSSLTQLTLQEFIESGEYQKHIKKMKQHYKEKRERLITALEAEFSGEVTVKGANAGLHFVTEFDTRRTEQDILSHAAGLQLEIFGMSRFNLKENKRQTGRPALIIGFARLKEEDIQEGVQRLFKAVYGHKKIPVTGD” the “soluble on expression in E. coli” value was “not soluble”. In the case of “MDKFKSMTELKELTKEGKDWEIECENRSSIVTILALHGGGIEPATTELAYTIAHCGDYNYFSFKGMRSKGNNELHVTSTHYDDQIALDLVRGSQRTVAIHGCEGNESVAYIGGSDDRLIELITESLEDIGISVREAPHHISGTQENNIVNMTQTQGGVQLELTAQLRKELFKNRKSSLEHHHHHH”, the “soluble on expression in E. coli” value is reported as “not soluble”. With “MDKGLSRLVELLNARGASMEEMVRLLEEERASIVALQAERLQAAVEQKVQVAARMEALDGDCRRVIADEARVRGLGEATLSPLLAGNPSPEKTELAGLQTKLSTLAQEIKGMIADNRRLLETSMVTVGRSLAFFQSRLTVAETYGNSGSMVERSSGGILRKEI” the “soluble on expression in E. coli” value was “not soluble”. For “MDKIIKSIAQSGAFRAYVLDSTETVALAQEKHNTLSSSTVALGRTLIANQILAANQKGDSKITVKVIGDSSFGHIISVADTKGHVKGYIQNTGVDIKKTATGEVLVGPFMGNGHFVTIIDYGTGNPYTSTTPLITGEIGEDFAYYLTESEQTPSAIGLNVLLDENDKVKVAGGFMVQVLPGASEEEIARYEKRLQEMPAISHLLASKNHVDALLEAIYGDEPYKRLSEEPLSFQCDCSRERFEAALMTLPKADLQAMIDEDKGAEIVCQFCGTKYQFNESDLEAIISDKA”, the “soluble on expression in E. coli” value was “not soluble”. In the case of “MDKLGLSKRGYFDFALKNKKWILLAVSGYGAFRVYHSPSISQKRKRISKLFTLLLNLIEAASDSAETVSVISKDLTEFLRSDSDQIPNSLKQISKIAKSDELNSSLIRFTQAMTVGLIRGIDDGSGSGFTDRVMDKLFTKSGSGFASAIVGSFARNLVVALYSSAGDGSNSKLLDAVFSDDGRRLIGDCVQRFVSTAVSVYLDKTSDVNVFDDLFAGLTNPKHEGKVKQTLVTLCNSAVETFVRASRKPVQLNRSSSCQDSSQTLTVGSTKQATWIDRVSSSLSVPSNRKYVVDLTGRVTFETVRSLLEVLIERANGKVESYVEKVRERGNETRRFVRVKTSLLHSLCLSLCLQIVEAPWMLTPRN”, the “soluble on expression in E. coli” value is reported as “not soluble”. In the case of “MDKLNKITVPASQKLRQLQKMVHDIKNNEGGIMNKIKKLKVKAPPSVPRRDYASESPADEEQQWSDDFDSDYENPDEHSDSEMYVMPAEENADDSYEPPPVEQETRPVHPALPFARGEYIDNRSSQRHSPPFSKTLPSKPSWPSEKARLTSTLPALTALQKPQVPPKPKGLLEDEADYVVPVEDNDENYIHPTESSSPPPEKAPMVNRSTKPNSSTPASPPGTASGRNSGAWETKSPPPAAPSPLPRAGKKPTTPLKTTPVASQQNASSVCEEKPIPAERHRGSSHRQEAVQSPVFPPAQKQIHQKPIPLPRFTEGGNPTVDGPLPSFSSNSTISEQEAGVLCKPWYAGACDRKSAEEALHRSNKDGSFLIRKSSGHDSKQPYTLVVFFNKRVYNIPVRFIEATKQYALGRKKNGEEYFGSVAEIIRNHQHSPLVLIDSQNNTKDSTRLKYAVKVS”, the “soluble on expression in E. coli” value is reported as “not soluble”. In the case of “MDKNRVFGQRLRQSIQNYFSSPWLLYTAKAEALLDLRDDEAMLNEMEAVGELPMALEYESLTDVQTQIVTAIQAELAHFRNTAQPINLGAVLQEQLARYPQSRHFDVARIIVDQAVKLGMASQDHQAVYPVWQPIDDFSAAVQAHLIDQYDK”, the “soluble on expression in E. coli” value is reported as “soluble”. For “MDLIFSLGVMIMPLTPPASPKTERRSEEDNQQTNQQGNEQGNQQPRSSILTLFGFTPNALVMPCPHGHGHFHIMDIQADDTLVFATMNGSPEIMSLLALQFLMQNVNLNLDDMLAAETDAKEAEEKEEQELSSSESVNEEKEEAEFSSSESENEEKEEENEESSRFTM”, the “soluble on expression in E. coli” value was “not soluble”. For “MDLMEEMWISRPQRRMTKLSDLSDGSIARIKFYNANKEYTVDSFKIMFAEYQKSIYCNQEVIGVCHSISDYSYIVDYINNSHFRNELDIFTPEFDKKRTHHITSHKSDKDTLQVRVISNEGVIKSYDMSAIEITFEKMYHIIDKERNGYRSGQL”, the “soluble on expression in E. coli” value was “not soluble”. With “MDLQTSSKFLQNQLAHLFQCERDSADVENSEGCFSTGNDPAFKDERLRFEFHTEPFNRRYLLRVVKVPP” the “soluble on expression in E. coli” value was “not soluble”. In the case of “MDLSIFKNARAKPVPRPAPAGAASGLHDPLAPTIFHEAWWLDASAPDGWSETLVRADNRIVGRLPYMILRKPFGQTSCEMPKFAHFLGPAVAPGPGARANRALKEAQIVRELHEQLPPTGNLYMRMHRGVTDTMVHAEAGLHMLVNFTFEIAPGCEQAIWAGMRDKTRNIIRRAQEKHCVSDTLDPRDFAACYRRNVDEAGHESYYETDEIVRVCTAALERGRGRILSATGPDGGLAAAIFTIWDATSCYYLLATRSRGEDHGATSLLLWEAIRHANRMGLIFDFDGLYTRGNRVFFTGFGGTVHPRYVVCGSTRTYRATAALSKALSRLRRP”, the “soluble on expression in E. coli” value is reported as “not soluble”.
